According to publication PMC6494836, “Mechanism-based tuning of insect 3,4-dihydroxyphenylacetaldehyde synthase for synthetic bioproduction of benzylisoquinoline alkaloids” (Nature Communications, 2019):

Test system: N[C@@H](Cc1ccc(O)c(O)c1)C(=O)O
Experiment: fluorometric H2O2 production assay (peroxidase-coupled)
Assay type: biochemical, Bombyx mori
Conditions: O2 co-substrate; PBS; PLP cofactor; aldehyde synthase (H2O2-producing) activity; parentheses are 95% confidence interval
Source text: fluorometric H2O2 production assay (peroxidase-coupled) on B. mori DHPAAS

Substance	Km	kcat
B. mori DHPAAS (Bombyx mori)	41.7 (36.6–47.3) µM	6.51 (6.27–6.76) min^−1
B. mori DHPAAS (Bombyx mori; N192H)	36.5 (32.8–40.5) µM	1.40 (1.35–1.44) min^−1
B. mori DHPAAS (Bombyx mori; F79Y/N192H/Y80F)	27.6 (17.1–42.8) µM	0.97 (0.87–1.09) min^−1
B. mori DHPAAS (Bombyx mori; F79Y/Y80F)	62.3 (49.5–78.5) µM	4.65 (4.30–5.03) min^−1
